{"source": "the DeepSol protein solubility set"}
{"assay": "soluble on expression in E. coli; label from the status in PepcDB or PDB records"}
{"sequence": "MGSDKIHHHHHHMQLEELINQHYSKLNDNDFHILKYILNHKHTCYHLGIDALAKACSVSRSSILRLAQKLGFSGYSEFRVFLKWEDQPEEGESMSFEKLLDDIEANLKFLRTKDMTDMCQLIDAADRIFVYGSGNAQKICARDLQRMFIPRHRYLILIEDTNEFNLMRDDFKVNDLFIIISLSGETPELIPQARMLSAKGIPFISITNLKNNVLAQLTPHNLYATSKPVTLSDRTEIVAFAPFFLVGEALFRAYVDYKEAEKNDNE", "soluble on expression in E. coli": "not soluble"}
{"sequence": "MMLSLNNLQNIIYNPVIPYVGTIPDQLDPGTLIVICGHVPSDADRFQVDLQNGSSVKPRADVAFHFNPRFKRAGCIVCNTLINEKWGREEITYDTPFKREKSFEIVIMVLKDKFQVAVNGKHTLLYGHRIGPEKIDTLGIYGKVNIHSIGFSFSSDLQSTQASSLELTEISRENVPKSGTPQLSLPFAARLNTPMGPGRTVVVKGEVNANAKSFNVDLLAGKSKDIALHLNPRLNIKAFVRNSFLQESWGEEERNITSFPFSPGMYFEMIIYCDVREFKVAVNGVHSLEYKHRFKELSSIDTLEINGDIHLLEVRSW", "soluble on expression in E. coli": "soluble"}
{"sequence": "DSDVEIATIALLDTVQPAHLAPDTKEETVKRWERYSAFAKKTYGLDFPVPYELLETAGEDALLAMMAEFLSTTDATEHGLSAGVLEHQRASFVDNRILDRMDMQRWANVKIPVMLFRAERMHDGAIELEPAYAEIEPDGGWSAIVEDLVIIQLSGDHLAVVDEPEIGKVGVALTNRIEQLQGK", "soluble on expression in E. coli": "not soluble"}
{"sequence": "MAHHHHHHMALIQTAHDACSRKVHCVRKGYLNDPFVSFFEKDHTIVNSPLMNRGTWLRTTAFENCVRGFATAAGQPIQVINFGAGMDTLYFRLKHSDPQFPVQKFMELDLADLVAEKERIIKRHSEMHSLVGSQYVLVSCDLYDAKGVAKALKEHLHGGTPTIMIAEMVFVYIEGSVTTNLLRTVMSDVIEPGTKTMLVTYDAIQPFDRFGKVMVENLQHFGADFKGIGDFPTPEAHAGRCSELGFKAVKSVTMKNLYLGVPRQIQIRLNKLEMIDDWEEWNLMHEHYCFVVASTEDAPLPKLF", "soluble on expression in E. coli": "not soluble"}
{"sequence": "MGSDKIHHHHHHVHAASRGAHRRLGAMRSSASQPLLKAALWDMDGTIVDTEPYWIEAEHALVAAHGGQWSHAQAMQLVGQSLVFSAGVLQKAGVKLEAREIIDSLTARVVSKVRKSVPWRPGARELLDQLHEAGIRCALVTMSEGPLAREVVAALPKPYFEFLVTGDTVTNGKPHPEAYLKAVELLQQGDSALTIADCVALEDSAPGVAAAMAAGVATVAIPHIVPLPDDPARATWHSLEGRTVADLQQLVARRSEFAVGDIGLEDAAFRSHGLD", "soluble on expression in E. coli": "not soluble"}
{"sequence": "MGHHHHHHSHQKGRYTELVEEKYKLFGELYKTFTKGGLICCSIESPNQEEQEVETDWGLLKGHTYTMTDIRKIRLGERLVEVFSAEKVYMVRLRNPLGRQEWSGPWSEISEEWQQLTASDRKNLGLVMSDDGEFWMSLEDFCRNFHKLNVCRNVNNPIFGR", "soluble on expression in E. coli": "not soluble"}
{"sequence": "MAVPPTYADLGKSARDVFNKGYGFGLVKLEVKTKSSSGVEFTSSGSSNTDTGKASGNLETKYKMKETGLTFTQKWNTDNTLGTEVALEDKLAKGLKLSLDTTFVPNTGKKSAKLKTSYKRDYANLGIDIDLDLAGPTIYGWGVLGYQGWLAGYQMAFDTAKSRLAQNNFALGYTAGDFQLHTNVNDGTEFGGSVYQKVSKDVETSVSLAWSAGSNNTRFGIGAKYQLDSNTTISAKVNNASLIGVGYTQTLRPGVKLTLSALVNGKNFSAGGHKVGLGFELEA", "soluble on expression in E. coli": "not soluble"}
{"sequence": "MITKDVKEQLIQVSGPENFDDSNAGRLVYSYDATPQYQSMPDAVIAPRNTDEISRILTICSEHRVPIVPRGSGTNLCGGTCPTEGGLVLLFKHMNQILEIDEENLTATVQPGVITLDMIRAVESKGLFYPPDPSSMKISTIGGNINENSGGLRGLKYGVTRDYVIGLEVVLANGDIIRTGGKLAKDVAGYDLTRLFVGSEGTLGIVTEAIVKLVPKPETKKTLLALYENIDAAAQTVSDIIAAKIIPATLEFLDQPTLLVIEDYAKIGLPTSAKAVLLIEQDGPFETVERDMEKIEAICKKGDAVSVQTAQTEEEAFALTEARRSALSALARLKPTTILEDATVPRSEIANMVKAINDIAAKYDISICTFGHAGDGNLHPTCTTDIRNKDEMERVEQAFAEIFEKAIELGGTITGEHGVGEMKAPYLEMKLKKEGIDAMKALKAAFDPRNILNPGKMFAKDARKR", "soluble on expression in E. coli": "not soluble"}
{"sequence": "GPGSMEGISEEQRQREEAEIRERDRKRQQEKEDYERRLAEAKAEEERKRREEEQLRLEEEKRKKRQEEEWKRLGSDAIQDLPPVPPPVAEEGALDMWYLDDETSQPPLSTASLKPGRKVGAPVITMKALRELGVVLFRVSMSDFSVVRQIIKEREYKHTDEVKISQTAKDDSFLERWYQEHYTEDEQFRVVMDGSFFLDIRSKQDEWIRVHVKAGDLVVLPAGIYHRATLDEDDYVALYRGFQDAPRFVPVKRSDSRADSNRVRLAYLMSLKKGDVATQNGFL", "soluble on expression in E. coli": "soluble"}
{"sequence": "MRIKKKNTRGNARNFITRSQAVRKLQVSLADFRRLCIFKGIYPREPRNKKKANKGSTAPTTFYYAKDIQYLMHEPVLAKFREHKTFARKLTRALGRGEVSSAKRLEENRDSYTLDHIIKERYPSFPDAIRDIDDALNMLFLFSNLPSTNQVSSKIINDAQKICNQWLAYVAKERLVRKVFVSIKGVYYQANIKGEEVRWLVPFKFPENIPSDVDFRIMLTFLEFYSTLLHFVLYKLYTDSGLIYPPKLDLKKDKIISGLSSYILESRQEDSLLKLDPTEIEEDVKVESLDASTLKSALNADEANTDETEKEEEQEKKQEKEQEKEQNEETELDTFEDNNKNKGDILIQPSKYDSPVASLFSAFVFYVSREVPIDILEFLILSCGGNVISEAAMDQIENKKDIDMSKVTHQIVDRPVLKNKVAGRTYIQPQWIFDCINKGELVPANKYLPGEALPPHLSPWGDAIGYDPTAPVEEGEEEESESESESEDQVEEEDQEVVAGEEDDDDDEELQAQKELELEAQGIKYSETSEADKDVNKSKNKKRKVDEEEEEKKLKMIMMSNKQKKLYKKMKYSNAKKEEQAENLKKKKKQIAKQKAKLNKLDSKK", "soluble on expression in E. coli": "soluble"}
{"sequence": "MLGSLAAEKRSVFQTSCCVRYKGCMLGVGPTVWGVVWGLGCTVEARGLRKRFGGRTAVAGVSFSVGDGERACIMGPNGSGKTTLLRMVSGVLRPSGGSVRVCGYDVWGDGWREARGLIGFAPQDPPMARRMTGAEYITVVGGLLGLSPGVARREARRVLEMLGFEDVLGRVVARLSGGQRRALGIALALASNPEVVVLDEPGSGLDVRARESLWASLRKAFKGRTVLFSSHDPQEAEAESDRVLIMHRGRLAAWGKPRELIQRYAPKPRVRVWADRAPDGLEPVHTGPGFSDYLIEAPGDVARIASAYSGAGILVERIEVLKPSLREVFFAVTGEEMD", "soluble on expression in E. coli": "soluble"}
{"sequence": "SNQLQQLQNPGESPPVHPFVAPLSYLLGTWRGQGEGEYPTIPSFRYGEEIRFSHSGKPVIAYTQKTWKLESGAPMHAESGYFRPRPDGSIEVVIAQSTGLVEVQKGTYNVDEQSIKLKSDLVGNASKVKEISREFELVDGKLSYVVRMSTTTNPLQPHLKAILDKL", "soluble on expression in E. coli": "soluble"}
{"sequence": "MKIYVSRSRLKSNRRRLINETDVERLFSRNGFQIIHPQELTIKEQINLFRHAQVIAGPLGSAMYNCVFQTKPTKKLLLTYEKFIKMSDLLINTSTNGLLYYFAGTEHKQNKSPSNTEWLEHHHHHH", "soluble on expression in E. coli": "soluble"}
{"sequence": "MNTTQRADQQTSADRRRRELLEAADRVVLRDGPHASMNAIAAEAGITKPILYRHFGDKGGLYAALAVRHTDALLASLRAALDAPAQRRQRVEATLDTYLAAIEARPQVYRFLMHPAESAGTPGDQSEQGFDVGKHSAPLLRRMGEELAQVIEERLDVGPGTQQLARVWGHGIVGMMHAAGDWWLGERPCPREELVRTLADLLWGRLAEAGDKEGGPGF", "soluble on expression in E. coli": "not soluble"}
{"sequence": "MNTAQLTSKQTLSYVEQTALVLLGMGEDAAAKVLQHFTRDETQRVTRAMAKLNGIKSDSARGVIQNFFEDFREHSGIRGASKEYLSNTLRKALGNDLAKGLLNNLYGDEIRNNMQRLQWVEAETLARFIVNEHPQMQAIFLAYLPADSSSAVLKHLPQDYHDEIIFRIAQLQDIDHQVATDLHELVERCIEKVSASQSVPLSGVKQAADIINRFEGDRGSLMEMLKLHDEEVVNAIEEN", "soluble on expression in E. coli": "not soluble"}
{"sequence": "MSYRMFDYLVPNVNFFGPNAISVVGERCQLLGGKKALLVTDKGLRAIKDGAVDKTLHYLREAGIEVAIFDGVEPNPKDTNVRDGLAVFRREQCDIIVTVGGGSPHDCGKGIGIAATHEGDLYQYAGIETLTNPLPPIVAVNTTAGTASEVTRHCVLTNTETKVKFVIVSWRNLPSVSINDPLLMIGKPAALTAATGMDALTHAVEAYISKDANPVTDAAAMQAIRLIARNLRQAVALGSNLQAREYMAYASLLAGMAFNNANLGYVHAMAHQLGGLYDMPHGVANAVLLPHVARYNLIANPEKFADIAELMGENITGLSTLDAAEKAIAAITRLSMDIGIPQHLRDLGVKETDFPYMAEMALKDGNAFSNPRKGNEQEIAAIFRQAF", "soluble on expression in E. coli": "soluble"}
{"sequence": "MSNTEERCDLSSSRDCPERHEHLLQRVTARAAEIGGGITVSRLMPSRQRRMIGAWCFLDHAGPAEFEPGGGLAVGPHPHIGLQTFTWMIQGEALHRDSLGNVQVIRPGQVNLMTAGHGIAHTEESLPDERHAHAAQLWIALPYEQRDIAPAFDHHPDLPRWQEQGVTFTLLAGALAGRQAPCRLYSPLLGADLACHDASTLQLTLDPHFEYGLLPLEGGLEVGGEHFAVNELAYLGDGRDGLQLQLDPGARVLLLGGAPFGAEIFMWWNFVGHSKGEIARAQKAWEEGDARFGRLDALEGPRLSAPPIPWKIDAE", "soluble on expression in E. coli": "not soluble"}
{"sequence": "IPGPGFTAGAQGSCSLRCGAQDGLCSCHPTCSGLGTCCEDFLDYCLEILPSSGSMMGGKDFVVQHLKWTDP", "soluble on expression in E. coli": "soluble"}
{"sequence": "NAELAKSGIEVKNDVCEHFAYSRQELFHLIRIEEIKTFDELLEKYGKGYGCEVCKPLAGSILASCWGEHILKPQLVKLHDTNDNFLGNIQKDGTYSVIPRMAGGEVTPQALGALANVAAEYNLYTKVTGAQRIGLFGAQKDDLPEIWRKLIDAGFETGQAYAKALRMAKTCVGSTWCRYGVQDSVGLGSYIENRYKGIRTPHKMKFGVSGCTRECAEAQGKDLGIIATDAGWNMYVCGNGGMKPRHADLLASDLDKETLIKYIDRFMMFYIRTAAPLQRTSVWMENMEGGVDYLRAVIVEDKLGINAQLEADVAKLVDEYECEWTATINDASQLTRFAHFINSDKRDDNVVFVQEREQHRPATFTEKHPEAKGDILHVAITEA", "soluble on expression in E. coli": "not soluble"}
{"sequence": "MQPDNYFILAQKPITEPSASVMGQVKNDVKKEEPKNEEKKPGDENKNPAAVGAEGAGAAEKPQDKSQKPFPEIKMPTESMKKKKNTDNEIDKRKKMKTGFYQEKSDEDDTLEKIESLKVEQSDKTKKSQKKKLTLENGEKKV", "soluble on expression in E. coli": "not soluble"}
{"sequence": "MAFNKVKIVKGSGGWGGPLIIEPTEKKNKVVYVTGGAKPETAVKIAELTGCELIDGFSQGVKDDEIACVIINCGGTLRCGIYPQKKIPTINIMKTGKSGPLAMFIKEDIYVSGVKPTNVEQ", "soluble on expression in E. coli": "not soluble"}
{"sequence": "MGSDKIHHHHHHMDTSIKKKRVRGRLLREMIEDAAFEVIEKEGLAGFSMRKLAAALGCEAMSIYHHFPSVAHLHEALVDRLVGALEMPDASLPWRQRMRIAIEDFRSIGRDHPAYATFFVTYRMNSPICLAWLNGILSLFRDGGFDTELSARLFRAVGYYLMGAVLDENAGYAKGPSAVNTVSDEQLARDFPNVMAAGRFFGTAEFDKTFELGLDMLLDEMERLRDGADAGQLSGKV", "soluble on expression in E. coli": "not soluble"}
